27 molecules from article PMC9352680, “A comprehensive thermodynamic model for RNA binding by the Saccharomyces cerevisiae Pumilio protein PUF4” can be followed below.

The data set has as its target T1, PUF4 RNA-binding domain (Saccharomyces cerevisiae, UniProt P25339 537-888).
T1 sequence: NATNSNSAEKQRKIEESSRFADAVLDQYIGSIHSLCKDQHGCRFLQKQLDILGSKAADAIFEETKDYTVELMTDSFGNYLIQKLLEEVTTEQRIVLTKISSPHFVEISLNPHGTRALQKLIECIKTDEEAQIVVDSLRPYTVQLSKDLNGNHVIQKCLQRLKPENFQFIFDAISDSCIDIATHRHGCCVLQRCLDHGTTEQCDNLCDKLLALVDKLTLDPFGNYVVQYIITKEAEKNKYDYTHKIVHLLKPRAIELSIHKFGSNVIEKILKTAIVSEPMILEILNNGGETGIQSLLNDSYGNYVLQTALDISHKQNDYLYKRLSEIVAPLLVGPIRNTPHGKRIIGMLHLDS
Nature of the data set: Mg; RNA-MaP; 20 mM Na-HEPES pH 7.4, 30 mM KOAc, 0.75 mM MgCl2, 0.1% Tween-20, 5% glycerol, 0.1 mg/mL BSA, 2 mM DTT; 25 C; 0.0125-409.6 nM protein. Particulars: tags: N-His6-TEV cleaved; C-SNAP kept, Cy3B-labelled; label: tethered on chip by stalled RNA polymerase.

Residue numbers refer to the chain shown, from its start. Names may count otherwise.

For orientation: Kd means a measure of binding affinity in units of concentration. A lower Kd goes with tighter binding. As for UCUCUUUUUAUUCUUAUCUCUU (ssRNA) [Ib_S1_P5E.1_K5.1_C5.1_H5.1_[G2T]_A5.1_[A7C]_F5.1_T5.1], the Kd was above 2300 nM.

Regarding UCUCUUUGUAUAAUUAUCUCUU (ssRNA) [Ia_S1_P5E.1_K5.1_C5.1_H5.1_A5.1_[T6A]_F5.1_T5.1], the Kd is 5.23 nM. This lies in the single-digit nanomolar range. The figure for UCUCUUUAUAUCAUUAUCUCUU (ssRNA) [Ib_S1_P5E.1_K5.1_C5.1_H5.1_[G2A]_A5.1_[T6C]_F5.1_T5.1] is 752 nM.

B1: Id_ii_S4_P4E.2_K4.1_C4.2_[C-2T]_[T-1A]_H4.1_A4.1_F4.1_T4.2_[T11C] (ssRNA)
RNA: UUUGACAACUGAUCGUUCUUUCUUAUGUAUAUUAGCUUCUUUCUCGAUCAGUUGUCUUU
On to B1, for which the Kd is 0.368 nM.

B2: Id_ii_S4_P4E.3_K4.2_C4.2_[C-2G]_H4.2_A4.1_F4.1_T4.2_[G10T] (ssRNA)
RNA: B1 RNA with U24G, A25U, G27A, G35U, C36U
With B2, binding was put at a Kd of 10.6 nM.

B3: Id_ii_S4_P4E.2_K4.1_C4.2_[C-2A]_H4.1_A4.1_F4.1_T4.2_[G10A]_[T11A] (ssRNA)
RNA: B1 RNA with U24A, A25U, G35A, C36A
Molecule B3 yielded a Kd of 1.35 nM. Against the preceding molecule, the Kd is about 7.9-fold lower.

B4: Id_ii_S4_P4E.2_K4.1_C4.2_[T-1A]_H4.1_A4.1_F4.1_T4.2_[G10A] (ssRNA)
RNA: B1 RNA with U24C, G35A, C36U
B4 came in with a Kd of 0.453 nM.

B5: Id_ii_S4_P4E.3_K4.2_C4.2_[C-2T]_[T-1G]_H4.2_A4.1_F4.1_T4.2_[G10T] (ssRNA)
RNA: B1 RNA with A25G, G27A, G35U, C36U
In the case of B5, the Kd is 1.83 nM. Against the preceding molecule, the Kd is about 4-fold higher.

B6: Id_ii_S4_P4E.2_K4.1_C4.2_[C-2A]_[T-1G]_H4.1_A4.1_F4.1_T4.2_[G10T]_[T11C] (ssRNA)
RNA: B1 RNA with U24A, A25G, G35U
Take B6: the Kd was found to be 2.16 nM. The Kd values of the last two molecules are within 1.5-fold of each other.

B7: Id_ii_S4_P4E.2_K4.1_C4.2_[C-2A]_H4.1_A4.1_F4.1_T4.2_[G10T] (ssRNA)
RNA: B1 RNA with U24A, A25U, G35U, C36U
Consider B7, for which binding was put at a Kd of 0.312 nM.

B8: Id_ii_S4_P4E.2_K4.1_C4.2_[T-1C]_H4.1_A4.1_F4.1_T4.2_[G10T]_[T11G] (ssRNA)
RNA: B1 RNA with U24C, A25C, G35U, C36G
In turn, B8 gave a Kd of 0.173 nM.

B9: Id_ii_S4_P4E.3_K4.2_C4.2_[C-2T]_H4.2_A4.1_F4.1_T4.2_[G10T]_[T11A] (ssRNA)
RNA: B1 RNA with A25U, G27A, G35U, C36A
Molecule B9 yielded an equilibrium dissociation constant (Kd) of 25.9 nM.

B10: Id_ii_S4_P4E.3_K4.2_C4.2_[C-2T]_[T-1A]_H4.2_A4.1_F4.1_T4.2_[G10C]_[T11G] (ssRNA)
RNA: B1 RNA with G27A, G35C, C36G
Consider B10, for which the Kd was 28.4 nM. The Kd values of the last two molecules are within 1.5-fold of each other.

B11: Id_ii_S4_P4E.2_K4.1_C4.2_[C-2T]_[T-1A]_H4.1_A4.1_F4.1_T4.2 (ssRNA)
RNA: B1 RNA with C36U
Molecule B11 came in with a Kd of 0.659 nM.

B12: Id_ii_S4_P4E.2_K4.1_C4.2_[T-1C]_H4.1_A4.1_F4.1_T4.2_[G10T]_[T11C] (ssRNA)
RNA: B1 RNA with U24C, A25C, G35U
For the molecule B12, the affinity, expressed as Kd, was 0.317 nM.

B13: Id_ii_S4_P4E.2_K4.1_C4.2_[T-1C]_H4.1_A4.1_F4.1_T4.2_[G10A]_[T11A] (ssRNA)
RNA: B1 RNA with U24C, A25C, G35A, C36A
As to B13, the Kd was 0.435 nM.

B14: Id_ii_S4_P4E.3_K4.2_C4.2_[C-2T]_[T-1C]_H4.2_A4.1_F4.1_T4.2_[G10A] (ssRNA)
RNA: B1 RNA with A25C, G27A, G35A, C36U
Molecule B14 came in with a Kd of 10.2 nM.

B15: Id_ii_S4_P4E.3_K4.2_C4.2_[C-2T]_[T-1C]_H4.2_A4.1_F4.1_T4.2_[G10T]_[T11C] (ssRNA)
RNA: B1 RNA with A25C, G27A, G35U
As to B15, binding was put at a Kd of 5.07 nM.

B16: Id_ii_S4_P4E.3_K4.2_C4.2_[C-2T]_H4.2_A4.1_F4.1_T4.2_[G10C]_[T11C] (ssRNA)
RNA: B1 RNA with A25U, G27A, G35C
On to B16, for which the Kd was found to be 9.36 nM.

B17: Id_ii_S4_P4E.3_K4.2_C4.2_[C-2T]_[T-1G]_H4.2_A4.1_F4.1_T4.2_[G10T]_[T11C] (ssRNA)
RNA: B1 RNA with A25G, G27A, G35U
On to B17, for which binding was characterised by a dissociation constant (Kd) of 3.99 nM.

B18: Id_ii_S4_P4E.3_K4.2_C4.2_[C-2T]_[T-1A]_H4.2_A4.1_F4.1_T4.2_[G10A]_[T11A] (ssRNA)
RNA: B1 RNA with G27A, G35A, C36A
The molecule B18 came in with a Kd of 42 nM.

B19: Id_ii_S4_P4E.3_K4.2_C4.2_[C-2A]_[T-1C]_H4.2_A4.1_F4.1_T4.2_[G10T]_[T11A] (ssRNA)
RNA: B1 RNA with U24A, A25C, G27A, G35U, C36A
The molecule B19 gave a dissociation constant Kd of 24.6 nM.

B20: Id_ii_S4_P4E.2_K4.1_C4.2_H4.1_A4.1_F4.1_T4.2_[G10A] (ssRNA)
RNA: B1 RNA with U24C, A25U, G35A, C36U
B20 had a dissociation constant (Kd) of 0.324 nM. Against the preceding molecule, the Kd is about 76-fold lower.

B21: Id_ii_S4_P4E.3_K4.2_C4.2_[C-2G]_H4.2_A4.1_F4.1_T4.2_[G10C] (ssRNA)
RNA: B1 RNA with U24G, A25U, G27A, G35C, C36U
Consider B21, for which the Kd is 38.1 nM. Against the preceding molecule, the Kd is about 120-fold higher.

B22: Id_ii_S4_P4E.3_K4.2_C4.2_[C-2T]_[T-1C]_H4.2_A4.1_F4.1_T4.2_[G10T]_[T11A] (ssRNA)
RNA: B1 RNA with A25C, G27A, G35U, C36A
Turning to B22, the Kd was determined as 12 nM.

B23: Id_ii_S4_P4E.2_K4.1_C4.2_[T-1G]_H4.1_A4.1_F4.1_T4.2_[G10A]_[T11G] (ssRNA)
RNA: B1 RNA with U24C, A25G, G35A, C36G
In the case of B23, the affinity, expressed as Kd, was 1.39 nM.

B24: Id_ii_S4_P4E.2_K4.1_C4.2_[C-2A]_[T-1G]_H4.1_A4.1_F4.1_T4.2_[G10A]_[T11A] (ssRNA)
RNA: B1 RNA with U24A, A25G, G35A, C36A
Take B24: the Kd turned out to be 1.62 nM.
